# From the RNAGym collection of RNA variant scans (doi:10.1073/pnas.2313332121)
# B1: TPR t1 (parent)
# chain: GACCAAUCUGCCCUCAGAGCUCGAGAACAUCUUCGGAUGCAGAGGAGGCAGGCUUCGGUGGCGCGAUAGCGCCAACGUCCUCAACCUCCAAUGCAUCCCACCACAUGAUGAUGCCUGAAGAGCCUUGGUUUUUUG
# Variants of: B1
# Experiment: polymerase ribozyme fitness, log enrichment relative to wild type (log ratio); higher = more active; in vitro selection for triplet polymerase activity
# How it was run: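 Libraries of mutants in each subunit of a heterodimeric triplet polymerase ribozyme were generated by PCR and transcribed. In triplicate, each went through one in vitro selection round: annealing with biotinylated primer, partner subunit and triplets; frozen incubation at −7 °C; gel excision of extended constructs; streptavidin-bead capture; RT-PCR. Fitness, taken from Illumina sequencing of input and output libraries, is the logarithm of a genotype's enrichment over wild-type enrichment, averaged across replicates with inverse-variance weights. The logarithm is base 2, and genotypes needed ≥10 input reads and ≥1 read per output to be kept.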
row,Variant,polymerase ribozyme fitness (log ratio)
1,G44A A103G A105U G117A,-6.51
2,G44C C101A,-1.76
3,G44A A121U,1.03
4,G44U G51A,-5.35
5,A43G G44C A46U G63C G120A,-5.64
6,G44U C53G G61C U81G C102U U132A,-3.53
7,G44U U96A,-2.64
8,A43C C82A,-2.48
9,A43C U59C C80A,-6.52
10,G45A C53A C86A U133A,-1.69
11,G44A C64U,-1.11
12,G44C U87G,-0.724
13,G44U G45A U54A,-3.42
14,G45A U92A,-3.38
15,G44A G60U C72U A90U,-1.55
16,G45A A46U U55C C89U U131A,-0.91
17,G44A C49U A50C U78C U133G G135U,-1.75
18,G44U G127C,-2.57
19,G44A G48C C56A,-1.29
20,A43U G63C U78C,-3.61
21,A43G C56U U109A G117U,-5.89

row,Variant,polymerase ribozyme fitness (log ratio)
1,G45C C114A,-2.66
2,A43U G71A,-2.46
3,A43U G47C U92C G93C A121G,-0.371
4,A43U A46G C62G,-4.27
5,A43U C86U,-2.52
6,A43U U129G,-2.71
7,G45A G60C,-0.0735
8,G44U G69A C76A G120C,-6.09
9,A43U G120C C124U,-0.575
10,A43C G61U C123G,-1.3
11,G44A C94U,-0.754
12,G45C G47U A50G G57U,-3.62
13,G44C C102G A108C C114G G122A,-6.67
14,G44U U55A,-0.917
15,A43C C85A C101A,-5.53
16,A43C U54A,-2.54
17,G44C A50G G52U U54C U92C C124A,0.995
18,G44U U96A U116G,-3.66
19,A43G U87G,-0.843
20,G44A C49G U55G C85U U106G G107C C115G,-6.1
21,A43C G51U C82G A121U,-6.24

row,Variant,polymerase ribozyme fitness (log ratio)
1,G45C C72U A90U G128C,-4.85
2,G44C U92G U112C,-0.938
3,G45A C123G,0.984
4,G44U C72U U96A U106G G117U A119U,-6.08
5,G44U G120U U130G,-1.7
6,A43U C49A,-1.86
7,G44C U106G C124G G135A,-0.579
8,A43C U112G U126G G128U,-3.02
9,G44U G60A,-0.946
10,A43U C53U G77U C85G U106A,-5.13
11,A43C C64U,-1.64
12,G45C G69A G117U,-6.59
13,G44A U96G,-2.12
14,G45A A84C,-0.717
15,G44U A108G,-2.57
16,A43U A111U,-4.27
17,A43U C56A C85G,-3.95
18,G45A G71U C115G,-2.11
19,G44A A68G,-3.75
20,G44A G120C,0.014
21,G44A G120U,-1.14

row,Variant,polymerase ribozyme fitness (log ratio)
1,G44C G135U,-1.88
2,A43G G63A A121G U129A,-3.06
3,A43G A84U,-1.9
4,G44U U59C G110A G127A U132A,-4.19
5,G44U U59G,-0.461
6,G45A U59A C104U,-0.336
7,A43G U54C C88U,-1.48
8,G44U G135U,-2.86
9,A43U C49G C72A C86A,-2.29
10,G45C C49A C76U C102A,-3.88
11,G44A G60C,0.513
12,A43U C70A,-3.22
13,G44U U54G C76A,-1.81
14,A43U U54A C73U G77C,-1.92
15,G45A C62A,-1.81
16,G45A C62U,-0.924
17,A43U G69U A91C,0.416
18,G44C G122A,-1.4
19,G45A C73U C97U A103U G120C,-5.59
20,A43G G52C C53A G61A U96C,-2.66
21,G45C U55C A119U,-2.39
